Assay: soluble on expression in E. coli; label from the status in PepcDB or PDB records
For “MSLAACSGGGNSSQGSGGSKFAFWDMPWGSPGPDYLAAGKEISAAFSGGSATYQSISWDGWLQTFSSAIAAGTGPAISTGGAFQSLQYYVQDAVHPADGVIAKLRSKGQLDDFLPGTLDVFKYKGAYTALPWNVDSRLLWYRKSLLEKAGVEEPRSWDDLYRVGVALKKNDVYGMVASGGAGGNAYQTFLSFVFNNGGGLFDKDGEPQCVTDANVEAVEFLMKLAKDGIMDPGSVSYTVANLNDQFSSGAAALSILPPDIANSFEDPRLKADITLGSPLTSPNGTKGTMAYTSDLILYTGDWDTDVVEDFAVYYLDAMSAYWKKGVLNKVPVRQSILDLPEVQAQPNLVKATKEWLPVGKSLTQLAGEPFPEINAVDGGQAITQWAQQVIQAKSSGEQTLRTLQDGIEKVMEGHHHITTDPNSSSVDKLAAALEHHHHHH”, the “soluble on expression in E. coli” value was “soluble”. With “MSLAADYTEQDAMRVQAVKTYIDNVLQEGRSQIKTTPLLADGINTTTRKPVEWIYPDGRTATISNFANQQNFLRALTAMSVVTEDQRYQLEAVRITRYFMDNFIADNGLFYWGGHRFVNLDTLELEGPQNKNSVHELKNHYPYYPFLYHVDPHATERYIKAFWQAHVEDWQSLDMGRHGSYSKNYDDKVFHRPIPASLVDQSKLPIMPETKGLTFINAGSDLIYAAYQLDWLAPSANAQGSAAWGQYLMTQYKLAKHPKTGAPVYQFTSPKKREWPPQSDKDTNSKYGDRAARQFGPELGNIAREGNVLFKSNDKSIVFNNALIELHLAEQRNDAAIREQVVDALLNFYRLAYNPENGTIKPIFSDGTSIEGIPLARDGYYGPKGRVFNAHKPKTEEYLLPILRAYRLQADPELWQLAANMTHHYGWGSLGNDAKAKPTLNMQLSSVSPMTLFSAIELYQITQQPEYLEFARAAADKLVEKRFVRGYFLANPRYLNASIDAIEPLALLTLDATLKGKTAQVAPYLSGSGYIHGEFAGKENAYDTNEIYKQTREGHHHHHH” the “soluble on expression in E. coli” value was “soluble”. For “MSLAAESTYKKLVMLVDDNETDNFIHRRVLEMGNFSKNIIVKNSGKSALEYLEANQSNSELIPEVIFLDINMPIVDGFVFLFEFESFPESIKERCKIIVLSSSDNKKDIDRIVDNDYVVHFITKPLSEDSIAELKKMVEGHHHHHH”, the “soluble on expression in E. coli” value was “soluble”. With “MSLAAKVVPTLQQLAWQQMELTAFLHFGINTFTDSEWGDGKEDPALFNPVELDARQWVRILHEAGFRMVILTAKHHDGFCLWPTATTRHSVASSPWREGKGDVVKEVRAACEEYGMKFGIYLSPWDRNAECYGDSHRYNRFFVSQLTELLTHYGEVHEVWFDGANGEGPNGKRQEYDWETFYDTIRRLQPQAVMAIMGDDVRWVGNERGLGRTTEWSATVLTPGIYSRSKTERNRLGIRENSPDLGSREVLKEAGEIFWYPSEVDVSIRPGWFYHAAEDKKVKSLDKLVDIYFQSVGYNSVLLLNVPPDRRGLIHEADALRLKEWADYLGRAFAHDRVVDSARYAVVQGHAVEEYALESKTHINILMLQEDITKGQRTEAFTVEAWVDGAWQEIGRGTTIGYKRLLRIPAVETDRIRVRIEQCRLPVNLCRVAVYYAEGHHHHHH” the “soluble on expression in E. coli” value was “soluble”. With “MSLAANMYRVGDYVYFENSSSNPYLIRRIEELNKTANGNVEAKVVCFYRRRDISSTLIALADKHATLSVCYKAGPGADNGEEGEIEEEMENPEMVDLPEKLKHQLRHRELFLSRQLESLPATHIRGKCSVTLLNETESLKSYLEREDFFFYSLVYDPQQKTLLADKGEIRVGNRYQADITDLLKEGEEDGRDQSRLETQVWEAHNPLTDKQIDQFLVVARSVGTFARALDCSSSVRQPSLHMSAAAASRDITLFHAMDTLHKNIYDEGHHHHHH” the “soluble on expression in E. coli” value was “not soluble”. With “MSLADFTHLLRPSNFDELIGQDHLSKDKAPLRVLCQKGVLGHSFFFGPSGTGKTSIARIIAKTMELPFYEFNATSIKIEQLRAIFEQYKNTLQKPLIFIDEVHRLAKNQQEVLLPVMENNSALIIGASTENPFFSLTSAIRSRSMLFELHHISNEALSRLLRRALDSSDITCSDEALEYLIKSSGGDARSMLKLLEFASNIGTHITLDILKSLRPNALSVGSSEAGVHYDLSSAMIKSIRGSDMDAAIYYLARLIDGGESAEFIARRLVILASEDVGNANPQALTLATSAMTSVSKIGYPEARIILSQAVIYLCASPKEGHHHHHH” the “soluble on expression in E. coli” value was “not soluble”. For “MSLADIPYGTDYPDAPWIDRDGHVLIDDGGKPTQVHRGQARIAYRLAERYQDKLLHVAGIGWHSWDGRRWAADDRGEAKRAVLAELRQALSDSLNDKELRADVRKCESASGVAGVLDLAAALVPFAATVADLDSDPHLLNVANGTLDLHTLKLRPHAPADRITKICRGAYQSDTESPLWQAFLTRVLPDEGVRGFVQRLAGVGLLGTVREHVLAILIGVGANGKSVFDKAIRYALGDYACTAEPDLFMHRENAHPTGEMDLRGVRWVAVSESEKDRRLAESTIKRLTGGDTIRARKMRQDFVEFTPSHTPLLITNHLPRVPGDDTAIWRRIRVVPFEVVIPADEQDRELDARLQLEADSILSWAVAGWSDYQRIGLSQPDAVLAATSNYREDSDTIKRFIDDECVTSSPVLKATTTHLFEAWQRWRVQEGVPEISRKAFGQSLDTHGYPVTDKARDGRWRAGIAVRGADDFDEGHHHHHH”, the “soluble on expression in E. coli” value was “soluble”. In the case of “MSLADLLDTVKQRGALKIALEGTYPPFNFKDAKQQLTGFDVEIATEIARRMKVKPEFVTAEWSGLLAGLQSGKFDIVVNQVGVTAQRQAVFDFSQPYTYSSAQLIVRKNESRDFKNLADLKGKKLGVGQGSNYADMAKAAAGVQVKTYPGAPEYLQDLATGRLDAALNDSLLIPFAIKQAKLPLKAGAPVGEVAAMAIPFAKGNPQFKSEIDKALGGMKADGTFRKISVKWFGIDVSKAEGHHHHHH”, the “soluble on expression in E. coli” value is reported as “soluble”. In the case of “MSLADVQQFPESIAELVPKFHVLKLPMVTRFRSITEREVMLFEGPDGWAEFSPFTEYGSVESSRWLQAALEFAGLLPTAEVEPSAVGSAAETVGQSVAVNATLPACATSEVGPILARYGPVGTVKAKVAEHGIDSLPEDWDRLREFRRLFPETTLRLDANAGYALPEALAACTEFAEFDLQYFEQPVAAVEDMARLREQLSARELPVVLAADESIRKAEDPVRVAELGAAEVVIVKVQPLGGIAAARSVLEACGLPAVVSSALESSVGLAAGAQLAATLPRTQRSRELLGEHPACGLGTGRLFAEDVVEPAQSLRPVDGQIPVTRIVPDPQRLETLAVDPGRFDWWEKRLQECWTALLSRRSEGHHHHHH”, the “soluble on expression in E. coli” value is reported as “not soluble”. For “MSLAELAAVPAAPDDRLYSADNTQSSGETIRHLTWSGYEAANVQRPFEKKFDCQTGVDLFTSNLDAFNRLDDGAWREFDHATFDMAWLPDLAEAGLIRPLDYEAWKPYTFDKYTDLFQRENGYEFAFLDEDYNFDADGQLYGVPQRFGWASFALNTDVVSESDARSYDAAWADEYDVGVYDLPFWGVQIVMLREGIDPYATHTDAEVERIREATVALFENAAGVYADVGSLNTALAAGDIDIAFVSGNWINGSLRRGGRFEYEARVPDEGGVIWVETTTMLKGSHPSVSTNYLAYMQHGITAKNLMWPTVGGTNVVPHQSSIDRLNRRQRTVLRIDDLQDIIDKSRFYTGEGHHHHHH”, the “soluble on expression in E. coli” value was “soluble”. For “MSLAIRQHVGALFTDLYEVTMAQAYWAERMSGTAVFEIFFRKLPPGRSYIMAAGLADVVEFLEAFRFDEQDLRYLRGLGQFSDEFLRWLAGVRFTGDVWAAPEGTVIFPNEPAVQLIAPIIEAQLVETFVLNQIHLQSVLASKAARVVAAARGRPVVDFGARRAHGTDAACKVARTSYLAGAAGTSNLLAARQYGIPTFGTMAHSFVQAFDSEVAAFEAFARLYPATMLLVDTYDTLRGVDHVIELAKRLGNRFDVRAVRLDSGDLDELSKATRARLDTAGLEQVEIFASSGLDENRIAALLAARCPIDGFGVGTQLVVAQDAPALDMAYKLVAYDGSGRTKFSSGKVIYPGRKQVFRKLEHGVFCGDTLGEHGENLPGDPLLVPIMTNGRRIRQHAPTLDGARDWARQQIDALPPELRSLEDTGYSYPVAVSDRIVGELARLRHADTAEAHPGSNVVGAKAKRPEGHHHHHH”, the “soluble on expression in E. coli” value was “not soluble”. With “MSLAIRVVCISDTHDLKVDIPRGDILIHAGDLTDGGTVSDIQKQLDWLKEQPHPIKVVVAGNHDSWFDQKSRPEEDARSGAKPDMDGLIYLESGLTVQKVKGRTVNIFGVPDIPEIGPKEFAFQYATDNHPWLSKVPPQTDILVTHCPPKHHLDLGLGDSNLLREVWRVKPRLHVFGHVHCAYGKESVFFDNFQQTYERIMSRPRRGPILDFIPNEAWLDEGHHHHHH” the “soluble on expression in E. coli” value was “not soluble”. With “MSLAKIVNVRPVLLSTPYGFEGCAENALHLPNGIRGCSMVEITLDNGVKGLGEGYLGVFAPDVFTSIARLVGTAITGDDISNGYGAVLAKAKTVTAYWSLQGAAQHVISAIEIALVDALSRVREIPAVELFGGKKVESIAMYGSGGDSLHPQYMAQELEQLAQRGIQTIKIRARHHQAAKTIWTIEAGRQYGIRVAVDMTQNLSIEGQTAEQVQAFCDLIQRETGEELVFVEECLGLDKLTQLPLLALQEGIAVAGGEIVTTKEELFDRIDANYYNVVQPDASVLGGIGDTIAVCEYAKQRSVNPVVHSWGGPVAMMANYVAAFATGCSLIEYPMPHFELRNVMCNLESRIHDGHFHLGDDIGLGVTLTDDIEGQFPHTNDALYHCFPMEDGLQQLEDSHRHWVKAEGHHHHHH” the “soluble on expression in E. coli” value was “soluble”. For “MSLAQIDFRKKINWHRRYRSPQGVKTEHEILRIFESDRGRIINSPAIRRLQQKTQVFPLERNAAVRTRLTHSMEVQQVGRYIAKEILSRLKELKLLEAYGLDELTGPFESIVEMSCLMHDIGNPPFGHFGEAAINDWFRQRLHPEDAESQPLTDDRCSVAALRLRDGEEPLNELRRKIRQDLCHFEGNAQGIRLVHTLMRMNLTWAQVGGILKYTRPAWWRGETPETHHYLMKKPGYYLSEEAYIARLRKELNLALYSRFPLTWIMEAADDISYCVADLEDAVEKRIFTVEQLYHHLHEAWGQHEKGSLFSLVVENAWEKSRSNSLSRSTEDQFFMYLRVNTLNKLVPYAAQRFIDNLPAIFAGTFNHALLEDASECSDLLKLYKNVAVKHVFSHPDVERLELQGYRVISGLLEIYRPLLSLSLSDFTELVEKERVKRFPIESRLFHKLSTRHRLAYVEAVSKLPSDSPEFPLWEYYYRCRLLQDYISGMTDLYAWDEYRRLMAVEQEGHHHHHH”, the “soluble on expression in E. coli” value was “soluble”. For “MSLAQINVAILGAGRIAQSMAETLVKMAADDRYRDLVAPYAVAARDGERAAAFAAKYGFPVSYGSYEELVADPNVNLVYIATPHNFHAEQAILCMRAGKGVLVEKAFGANTQQAREILDVSDETGMLCTEAIWTRYMPSRGMIDDIIASGVIGEVQAIDANLCYPTTAKARITDPALAGGALLDVGVYPINFIDMIMHNAPIARVESSMQPYETGVDAHNSMTFYYQNGVMATAQSSILCHSDRMGAVWGTEGYLTCQNINNVEAIDMFDGSHAVTAHYDVPEQLTGYEYEVASTAQAMLDGRTECDEMPHSDTLRIMECMDSLRADWGLKYPFEAEGHHHHHH”, the “soluble on expression in E. coli” value was “soluble”. For “MSLAQIVNTERHSRLLPAPSSFEEGVVKFGDKEINIGGPLPTLAKDEKLVRVTHSLCPACYRLLPATIFEKEGKLFIRKICPEHGEFEDLYYADSSLYYKFDYWEYEGKGPKVPYVDLKSPCPYNCGLCPMHHQHSALVNLVITNRCDLSCWYCFFYAEKAGYVYEPTLEQIKFMVDQLKKQDITLVIQVTGGEPTLREDIIEIIKMLRENGVKHIQLNSWGGTFAKLYLEDPDKAIKYARALREAGVNTVYMSFDGTTRKTNPKNHWEIPYTLEVFRRAGMTSVVLVPTVIKTVNDNDLGNIVKFAAYNMDVVRSVNFQPVSLTGMMKRNMRAKFRITIPEVIKNIEEQTDGEITKDSWYPIGTSVVFSRLVEALTGKEQFEMANHPSCGAGTYVYVEWRNHEPHFIPISKFIDLEGLLEYLKEKEEELREGANKVWVASKVLYSIRKFIDKEQGPKDFDVYKMLYNIIIHHNYEALGEWHYRTLFLGSMHFMDLYNYDVQRVMRCDIHYVVPDGRVIPFCTYNVLNDLYRDKVLREYQIPLDKWTKEHGENSLGDAIKYKRIASTLENSEIYKNTYKSFQQMEGHHHHHH”, the “soluble on expression in E. coli” value was “not soluble”.
